This assay addresses T1, human FAP (huFAP) expressed on cells (human, UniProt Q12884 1-760).
T1 construct: also called WI-38 cells
T1 sequence: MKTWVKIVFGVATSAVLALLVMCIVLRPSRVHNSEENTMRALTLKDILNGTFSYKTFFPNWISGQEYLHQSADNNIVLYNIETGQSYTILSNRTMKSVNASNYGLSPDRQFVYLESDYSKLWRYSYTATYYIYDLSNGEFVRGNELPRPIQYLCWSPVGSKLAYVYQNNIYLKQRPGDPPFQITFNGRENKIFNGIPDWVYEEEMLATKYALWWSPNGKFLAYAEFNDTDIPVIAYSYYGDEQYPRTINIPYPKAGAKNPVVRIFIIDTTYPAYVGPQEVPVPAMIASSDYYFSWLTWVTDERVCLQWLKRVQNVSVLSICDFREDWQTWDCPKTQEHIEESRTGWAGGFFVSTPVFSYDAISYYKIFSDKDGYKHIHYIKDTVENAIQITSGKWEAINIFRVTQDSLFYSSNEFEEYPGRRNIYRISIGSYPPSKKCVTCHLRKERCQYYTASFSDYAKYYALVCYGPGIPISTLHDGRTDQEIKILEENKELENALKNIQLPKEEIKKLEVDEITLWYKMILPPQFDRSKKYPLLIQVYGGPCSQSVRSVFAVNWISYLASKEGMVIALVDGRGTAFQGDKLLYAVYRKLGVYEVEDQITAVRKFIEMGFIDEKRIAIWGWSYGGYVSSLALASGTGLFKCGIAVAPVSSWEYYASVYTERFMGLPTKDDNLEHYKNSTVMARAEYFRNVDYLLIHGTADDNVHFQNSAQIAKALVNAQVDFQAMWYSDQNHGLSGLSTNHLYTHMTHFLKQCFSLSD
As to the kind of experiment: FACS titration (10 ug/ml to 3.16 ng/ml) on WI-38 cells; positive control sibrotuzumab analog. Here is the method:
The human anti-FAP panel was tested on WI-38 cells (endogenously expressing huFAP) and binding was measured by FACS.
The target cells were harvested, counted, and centrifuged for 5 min at 300 g at 4° C. Cells were then resuspended in FACS buffer at a concentration of 1×10⁶ cells/ml and transferred (200,000 cells/well) to a U-bottom 96-well FACS plate (BD, cat. #353910). Cells were washed by adding 200 μl PBS and centrifuged for 3 min at 300 g at 4 °C. Cells were then centrifuged for 3 min at 300 g at 4° C. and supernatant was discarded. Antibodies were diluted in an 8 steps, semi-log dilution series ranging from 10 ug/ml to 3.16 ng/ml in FACS buffer (50 μ/well), mixed, and incubated for 30 min at 2-8° C. in the dark. A titration of the sibrotuzumab analog was included as positive control and used to normalize data. The negative control TT antibody was included as negative control. Cells were washed by adding 150 μl FACS buffer and centrifuged for 3 min at 300 g at 4° C. Supernatant was discarded, and cells were washed again by adding 200 μl FACS buffer to the plate. Cells were then centrifuged for 3 min at 300 g at 4° C. and afterwards the supernatant was discarded. […] Fluorescence intensity of the cells was then measured on the iQue VBR (Intellicyt).

B1: anti-human FAP bivalent monospecific IgG comprising heavy chain variable region SEQ ID NO: 19 (antibody, V domains shown)
VH: EVQLVESGGGLVKPGGSLRLSCAASGFPFNYAWMSWVRQAPGKGLEWVGRIKPKTSGGATDYAAPVKDRFTISRDDSRNTLYLQMNSLKTEDTAVYYCSAREDIWNFFFDLWGQGTLVTVSS
VL: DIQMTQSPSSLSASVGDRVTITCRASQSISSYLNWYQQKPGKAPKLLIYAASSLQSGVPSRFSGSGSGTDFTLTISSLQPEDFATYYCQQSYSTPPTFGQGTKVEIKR
notes: IgG1 format, common light chain VK1-39/JK1
As for B1, the binding result was “binds”.

The values are drawn from US20240218070A1 (MERUS N V, published 2024).
